Experimental data: US20230192875A1 (KUMHO HT, published 2023)
Where a chain is given by its changes, count along the chain named.

T1: recombinant antigen human CD40L (Recombinant Human sCD40 Ligand; Peprotech, Cat. No.: 310-02) (human, UniProt P29965 113-261)
T1 construct: Soluble recombinant CD40L; also called rCD40L; recombinant antigen CD40L
T1 chain: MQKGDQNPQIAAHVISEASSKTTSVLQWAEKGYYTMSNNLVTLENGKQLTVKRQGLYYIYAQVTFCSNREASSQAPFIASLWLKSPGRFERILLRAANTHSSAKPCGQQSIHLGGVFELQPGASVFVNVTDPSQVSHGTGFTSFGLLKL

B1: anti-CD40 5C2 chimeric antibody comprising human IgG1 constant region (antibody)
heavy: not shown
light: DIQMTQTTSSLSASLGQRVTISCRASQDISNHLNWYQQKPNGTVRLLISSTSRLHSGVPSRFSGSGSGTDYSLTISNLEQEDIATYFCQQGNTLPWTFGGGTKLEIKRTVAAPSVFIFPPSDEQLKSGTASVVCLLNNFYPREAKVQWKVDNALQSGNSQESVTEQDSKDSTYSLSSTLTLSKADYEKHKVYACEVTHQGLSSPVTKSFNRGEC
notes: expressed in ExpiCHO and purified on Protein A; also called Chimeric IgG1; IgG1 chimeric antibody
B2: anti-CD40 5C2 chimeric antibody comprising human IgG2 constant region (antibody)
heavy: QVQMLQSGTELVRPGTSVKVSCKASGYGFTNYLIEWVKQRPGQGLEWIGVINPGYGGVNYNEKFKGKAILTADKSSSTAYMHLTSLTSDDSAVYFCARGGSGFAFWGQGTLVTVSTASTKGPSVFPLAPCSRSTSESTAALGCLVKDYFPEPVTVSWNSGALTSGVHTFPAVLQSSGLYSLSSVVTVPSSNFGTQTYTCNVDHKPSNTKVDKTVERKCCVECPPCPAPPVAGPSVFLFPPKPKDTLMISRTPEVTCVVVDVSHEDPEVQFNWYVDGVEVHNAKTKPREEQFNSTFRVVSVLTVVHQDWLNGKEYKCKVSNKGLPAPIEKTISKTKGQPREPQVYTLPPSREEMTKNQVSLTCLVKGFYPSDIAVEWESNGQPENNYKTTPPMLDSDGSFFLYSKLTVDKSRWQQGNVFSCSVMHEALHNHYTQKSLSLSPGK
light: B1 light
notes: also called Chimeric IgG2; IgG2 chimeric antibody
B3: anti-CD40 5C2 chimeric antibody comprising human IgG4 constant region (antibody)
heavy: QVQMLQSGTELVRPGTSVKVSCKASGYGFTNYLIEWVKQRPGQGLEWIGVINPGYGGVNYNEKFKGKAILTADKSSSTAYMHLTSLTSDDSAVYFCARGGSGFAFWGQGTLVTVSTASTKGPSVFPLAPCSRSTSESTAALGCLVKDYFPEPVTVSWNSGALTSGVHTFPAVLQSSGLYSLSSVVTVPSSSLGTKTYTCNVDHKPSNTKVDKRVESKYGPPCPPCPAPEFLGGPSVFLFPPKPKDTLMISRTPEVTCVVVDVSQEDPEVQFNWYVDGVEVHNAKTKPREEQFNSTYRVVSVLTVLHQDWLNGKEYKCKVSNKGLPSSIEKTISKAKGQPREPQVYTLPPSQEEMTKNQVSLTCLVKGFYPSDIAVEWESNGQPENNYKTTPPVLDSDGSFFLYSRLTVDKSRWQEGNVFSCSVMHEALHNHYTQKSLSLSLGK
light: B1 light
notes: also called Chimeric IgG4; IgG4 chimeric antibody
B4: anti-CD40 mouse monoclonal antibody 5C2 (antibody, V domains shown)
VH: QVQMLQSGTELVRPGTSVKVSCKASGYGFTNYLIEWVKQRPGQGLEWIGVINPGYGGVNYNEKFKGKAILTADKSSSTAYMHLTSLTSDDSAVYFCARGGSGFAFWGQGTLVTVST
VL: DIQMTQTTSSLSASLGQRVTISCRASQDISNHLNWYQQKPNGTVRLLISSTSRLHSGVPSRFSGSGSGTDYSLTISNLEQEDIATYFCQQGNTLPWTFGGGTKLEIK
notes: also called 5C2 antibody (mouse antibody); antibody of hybridoma KCLRF-BP-00381
B5: humanized 5C2 antibody VH1VL2 (a combination of heavy chain VH1 and light chain VL2) (antibody, human IgG2, V domains shown)
VH: QVQLVQSGAEVKKPGASVKVSCKASGYGFTNYLIEWVRQAPGQGLEWIGVINPGYGGVNYNEKFKGRATLTADKSISTAYMELSRLRSDDTAVYFCARGGSGFAFWGQGTLVTVSS
VL: EIVMTQSPATLSVSPGERATLSCRASQDISNHLNWYQQKPGQAVRLLISSTSRLHSGIPARFSGSGSGTEYTLTISSLQSEDFAVYFCQQGNTLPWTFGQGTKVEIK
notes: Tested as CHO culture supernatant
B6: humanized 5C2 antibody VH3VL2 (a combination of heavy chain VH3 and light chain VL2) (antibody, human IgG2, V domains shown)
VH: B5 VH with A16S, I76T, R85S, D89E
VL: B5 VL
notes: as for B5
B7: humanized 5C2 antibody VH2VL2 (a combination of heavy chain VH2 and light chain VL2) (antibody, human IgG2, V domains shown)
VH: B5 VH with A68V
VL: B5 VL
notes: as for B5
B8: humanized 5C2 antibody VH5VL1 (a combination of heavy chain VH5 and light chain VL1) (antibody, human IgG2, V domains shown)
VH: EVQLVQSGAEVKKPGESVKISCKASGYGFTNYLIEWVRQMPGKGLEWIGVINPGYGGVNYNEKFKGQATLSADKSISTAYLQLSSLKASDTAVYFCARGGSGFAFWGQGTLVTVSS
VL: DIQMTQSPSSLSASVGDRVTITCRASQDISNHLNWYQQKPGKAVKLLISSTSRLHSGVPSRFSGSGSGTDYTLTISSLQPEDFATYFCQQGNTLPWTFGQGTKVEIK
notes: as for B5
B9: humanized 5C2 antibody VH1VL1 (a combination of heavy chain VH1 and light chain VL1) (antibody, human IgG2, V domains shown)
VH: B5 VH
VL: B8 VL
notes: as for B5
B10: humanized 5C2 antibody VH5VL2 (a combination of heavy chain VH5 and light chain VL2) (antibody, human IgG2, V domains shown)
VH: B8 VH
VL: B5 VL
notes: as for B5
B11: humanized 5C2 antibody VH2VL1 (a combination of heavy chain VH2 and light chain VL1) (antibody, human IgG2, V domains shown)
VH: B5 VH with A68V
VL: B8 VL
notes: as for B5
B12: humanized 5C2 antibody VH3VL1 (a combination of heavy chain VH3 and light chain VL1) (antibody, human IgG2, V domains shown)
VH: B5 VH with A16S, I76T, R85S, D89E
VL: B8 VL
notes: as for B5

Tests used:
[1] = target: T2, recombinant antigen human CD40 (Sino Biological Inc., Cat. No.: 10774-H02H) (human, UniProt P25942 21-193); experiment: ELISA (FIG. 2)
T2 construct: Bought antigen used in the ELISA of the chimeric antibodies
Experimental: A dilution of the recombinant antigen human CD40 (Sino Biological Inc., Cat. No.: 10774-H02H) at a concentration of 1.0 μg/mL in phosphate buffered saline was plated at 100 μL/well into microplates and incubated at 37° C. for one hour to coat the plates therewith. Then, a 1× blocking solution (Sigma) was added in an amount of 200 μL per well and incubated at 37° C. for one hour to block the antigen.
The dilutions were added in an amount of 100 μL/well, incubated at 37° C. for one hour and washed three times with phosphate buffered saline. The antibodies were treated with the secondary antibody goat anti-human IgG F(ab′)2-HRP (Jackson Immunoresearch, Cat. No.: 109-035-006) at 37° C. for 30 min and washed three times with phosphate buffered saline. After reaction with 100 μL of TMB Single Solution (Life Technologies, Cat. No: 002023) per well at room temperature for 4-10 min in a dark place, the color development was stopped with 100 μL of 1.0 N sulfuric acid and then absorbance at 450 nm was measured.

[2] = target: T1, recombinant antigen human CD40L …; experiment: ELISA, antigen coated at 1.0 µg/mL, antibody at 1.0 µg/mL, anti-mouse IgG-HRP
[3] = target: T3, recombinant human CD40 (R&D systems, Cat. No.: P25942) (human, UniProt P25942 21-193); experiment: ELISA, coated CD40 100 ng/well, hybridoma culture supernatant
T3 construct: also called rCD40; human recombinant CD40
Experimental: Human recombinant CD40 (R&D systems, Cat. No.:P25942) was plated in an amount of 100.0 ng per well into a MaxiSorp ELISA plate and reacted at 37° C. for one hour for antibody coating, followed by blocking by incubation with 200 μL of 1× blocking solution (Sigma) per well at 37° C. for one hour.

[4] = target: T4, human CD40 expressed on Ramos cell line (ATCC CRL-1596) (human, UniProt P25942 21-277); experiment: flow cytometry on Ramos cells, FITC-5C2 1.0 µg/mL, with or without preincubation with CD40L 15.0 µg/mL
T4 construct: whole, on cells; Endogenous CD40 on Ramos cells; also called CD40 on Ramos cells
Experimental: A solution of FITC Isomer I (Invitrogen, Cat. No.: F1906) at a concentration of 2.6 mg/mL in DMSO (Sigma-Aldrich, Cat. No.:276855) was added in an amount of 20.0 μL to each of the antibody solutions. After FITC conjugation by stirring at room temperature for 2 hours, the resulting antibody solutions were dialyzed against phosphate buffered saline to obtain FITC-labeled antibodies.
The cells were washed again with phosphate buffered saline and then subjected to fluorescent immunoassay using flow cytometry (Stratedigm, S1000EXi).

[5] = target: T3, recombinant human CD40 (R&D systems, …); experiment: ELISA, coated rCD40 1.0 µg/mL, CHO culture supernatant
Experimental: Each of the humanized antibody cultures was assayed for reactivity for a recombinant antigen human CD40 (rCD40; R&D systems, Cat. No.: P25942) by ELISA. For this assay, a dilution of rCD40 at a concentration of 1.0 μg/mL in phosphate buffered saline was plated at a density of 100 μL/well into microplates and incubated at 37° C. for one hour to coat the microplates with the antigen which was then blocked by adding a 1× blocking solution (Sigma) in an amount of 200 μl per well and incubating at 37° C. for one hour.
Following one hour of incubation with 100 μL of each of the humanized anti-CD40 antibody cultures at 37° C., the microplates were washed three times with phosphate buffered saline. Treatment with the secondary antibody goat anti-human IgG F(ab′)2-HRP (Jackson Immunoresearch, Cat. No.: 109-035-006) at 37° C. for 30 min was followed by three rounds of washing with phosphate buffered saline. Then, TMB Single Solution (Life Technologies, Cat. No: 002023) was added in an amount of 100 μl per well and incubated at room temperature for 5-10 min in a dark place. Color development was stopped with 100 μL of 1.0 N sulfuric acid and absorbance at 450 nm was measured.

T3 sequence (P25942 21-193 limits assumed, one chain of several): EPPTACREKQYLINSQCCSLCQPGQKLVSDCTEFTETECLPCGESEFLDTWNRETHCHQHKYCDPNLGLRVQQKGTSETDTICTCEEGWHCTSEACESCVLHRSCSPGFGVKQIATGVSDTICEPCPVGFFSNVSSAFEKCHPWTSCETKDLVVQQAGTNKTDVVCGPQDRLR
T2 sequence (P25942 21-193 limits assumed): as the sequence (P25942 21-193 limits assumed, one chain of several) above
T4 sequence (P25942 21-277): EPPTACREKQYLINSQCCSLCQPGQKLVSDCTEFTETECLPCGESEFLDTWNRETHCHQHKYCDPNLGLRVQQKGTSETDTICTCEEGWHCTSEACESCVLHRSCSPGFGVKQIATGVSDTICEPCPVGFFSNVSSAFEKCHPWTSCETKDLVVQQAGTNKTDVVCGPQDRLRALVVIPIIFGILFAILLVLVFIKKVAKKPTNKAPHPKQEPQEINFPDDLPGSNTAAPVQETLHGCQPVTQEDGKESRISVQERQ

Binder | binding result [5] | further results
B1 | – | binding result [1]: binds
B2 | – | binding result [1]: binds
B3 | – | binding result [1]: binds
B4 | – | binding result [2]: no binding (tested: 1.0 µg/mL); binding result [3]: binds; binding result [4]: binds
B5 | binds | –
B6 | binds | –
B7 | binds | –
B8 | binds | –
B9 | binds | –
B10 | binds | –
B11 | binds | –
B12 | binds | –
